The experiment has as its target T1, ScVan1 (Saccharomyces cerevisiae Van1p glycosyltransferase domain, residues 87-535) (S. cerevisiae, UniProt P23642 87-535).
T1 construct: Van1p, S. cerevisiae S288c, lacking the first 86 amino acid residues (cytoplasmic domain, transmembrane domain and predicted disordered region); glycosyltransferase domain 87-535; Cloned into pNIFTY/MBP (MBP, hexahistidine, TEV site at the N-terminus); the tag was cleaved off with TEV protease; also called ScVan1p; V1; source: E. coli BL21(DE3) pLysS, purified (Ni-IMAC, TEV cleavage, anion …)
T1 sequence (looked up): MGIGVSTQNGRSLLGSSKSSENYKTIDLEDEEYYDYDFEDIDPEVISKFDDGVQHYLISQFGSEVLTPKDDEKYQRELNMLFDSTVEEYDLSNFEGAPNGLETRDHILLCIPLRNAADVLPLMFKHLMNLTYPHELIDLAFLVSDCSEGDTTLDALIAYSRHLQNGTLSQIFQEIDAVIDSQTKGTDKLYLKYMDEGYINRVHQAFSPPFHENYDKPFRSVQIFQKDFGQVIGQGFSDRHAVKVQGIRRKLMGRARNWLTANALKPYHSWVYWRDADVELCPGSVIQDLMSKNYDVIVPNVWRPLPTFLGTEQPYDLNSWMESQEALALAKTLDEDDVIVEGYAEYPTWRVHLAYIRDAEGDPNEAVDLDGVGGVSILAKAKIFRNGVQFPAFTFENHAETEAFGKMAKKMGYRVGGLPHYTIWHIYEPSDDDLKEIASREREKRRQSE
Description: BLI; Octet RED384; biotinylated ScMnn9 bound at 25 µg/ml to streptavidin sensors; ScVan1 at 0 to 15 µM in buffer C (100 mM HEPES pH 7.5, 5 mM MnCl2, 1 mg/ml BSA, 0.015% BRIJ 35); association 10 min, dissociation 20 min; triplicate, full kinetic fit. To be noted: both partners purified. For orientation: BLI is a label-free optical method that tracks binding on a fibre tip over time.

B1: ScMnn9 (Saccharomyces cerevisiae Mnn9p glycosyltransferase core, residues 93-395) (domain or fragment, S. cerevisiae, UniProt P39107 93-395, looked up)
chain: EGHIAHYDLNKLHSTSEAAVNKEHILILTPMQTFHQQYWDNLLQLNYPRELIELGFITPRTATGDLALKKLENAIKKVQTDKKTQRFSKITILRQNSQSFDKLMEKERHALDVQKERRAAMALARNELLFSTIGPHTSWVLWLDADIIETPPSLIQDMTKHNKAILAANIYQRFYDEEKKQPSIRPYDFNNWQESDTGLEIASQMGDDEIIVEGYAEIATYRPLMAHFYDANGVPGEEMALDGVGGGCTLVKAEVHRDGAMFPNFPFYHLIETEGFAKMAKRLNYDVFGLPNYLVYHIEEENH
modifications: biotinylated with EZ-link NHS-PEG4-Biotin
notes: Mnn9p, S. cerevisiae S288c, lacking the first 92 amino acid residues (cytoplasmic domain, transmembrane domain and predicted disordered region); glycosyltransferase core 93-395; Cloned into pNIFTY/MBP (MBP, hexahistidine, TEV site at the N-terminus); PDB 3ZF8 holds the D236N mutant of the same limits; also called ScMnn9p; M9; source: E. coli BL21(DE3) pLysS, purified (Ni-IMAC, TEV cleavage, anion …)
Turning to B1, binding was characterised by a dissociation constant (Kd) of 480 nM; the koff (as a rule, a measure of how fast the partners let go of each other) was determined as 0.00032 s⁻¹; the on-rate constant (kon) (commonly the second-order rate constant of association) was 620 M⁻¹ s⁻¹.

(Values after publication PMC3787745, “Yeast Mnn9 is both a priming glycosyltransferase and an allosteric activator of mannan biosynthesis” (Open Biology, 2013).)
